{"source": "paper PMC11481871", "about": "“Discovery of GuaB inhibitors with efficacy against Acinetobacter baumannii infection” (mBio, 2024)", "proteins": {"B1": {"name": "E. coli GuaBΔCBS (L2-S488_ΔE90-R217) (enzyme, Escherichia coli, UniProt P0ADG7 2-488, looked up)", "chain": "LRIAKEALTFDDVLLVPAHSTVLPNTADLSTQLTKTIRLNIPMLSAAMDTVTEARLAIALAQEGGIGFIHKNMSIERQAEEVRRVKKHLRVGAAVGAGAGNEERVDALVAAGVDVLLIDSSHGHSEGVLQRIRETRAKYPDLQIIGGNVATAAGARALAEAGCSAVKVGIGPGSICTTRIVTGVGVPQITAVADAVEALEGTGIPVIADGGIRFSGDIAKAIAAGASAVMVGSMLAGTEESPGEIELYQGRSYKSYRGMGSLGAMSKGSSDRYFQSDNAADKLVPEGIEGRVAYKGRLKEIIHQQMGGLRSCMGLTGCGTIDELRTKAEFVRISGAGIQESHVHDVTITKESPNYRLGS", "notes": "GuaB (inosine-5'-monophosphate dehydrogenase) of Escherichia coli, residues L2-S488 with the CBS domains (E90-R217) deleted; Crystallised with IMP and soaked with G1, G2 or G8; one molecule in the asymmetric unit, the tetramer arises from the fourfold axis of space group I4; also called E.c; GuaB; source: E. coli BL21 (DE3) Gold, purified (HisTrap FF, Superdex200 size-exclusion; same protocol as …)"}, "B2": {"name": "S. aureus GuaBΔCBS (W2-F488_ΔE92-R219) (enzyme)", "chain": "WESKFAKESLTFDDVLLIPAQSDILPKDVDLSVQLSDKVKLNIPVISAGMDTVTESKMAIAMARQGGLGVIHKNMGVEEQADEVQKVKRSLLVAAAIGISKDTDIRAQKLVEAGVDVLVIDTAHGHSKGVIDQVKHIKKTYPEITLVAGNVATAEATKDLFEAGADIVKVGIGPGSICTTRVVAGVGVPQITAIYDCATEARKHGKAIIADGGIKFSGDIIKALAAGGHAVMLGSLLAGTEESPGATEIFQGRQYKVYRGMGSLGAMEKGSNDRYFQEDKAPKKFVPEGIEGRTAYKGALQDTIYQLMGGVRAGMGYTGSHDLRELREEAQFTRMGPAGLAESHPHNIQITKESPNYSF", "notes": "Crystallised with IMP and soaked with G1, G2 or G8; one molecule in the asymmetric unit, the tetramer arises from the fourfold axis of space group I4; also called S.a; GuaB; source: E. coli BL21 (DE3) Gold, purified (HisTrap FF, Superdex200 size-exclusion; same protocol as A. baumannii GuaBΔCBS)"}, "B3": {"name": "A. baumannii GuaB with CBS domain deletion (M1-G488_ΔM93-R201) (enzyme)", "chain": "MLTIVQEALTFDDVLLLPAYSTVLPKDVSLKTRLTRGIYLNIPLVSAAMDTVTESRMAIAMAQNGGIGILHKNMDIAAQAAEVRRVKKFEAGKAESYPNSCKDDLGRLRVGAAVGTGADTPSRVEALVEAGVDVIVVDTAHGHSAGVIERVRWVKQNFPQVQVIGGNIATGDAALALLDAGADAVKVGIGPGSICTTRIVAGIGMPQISAIDSVASALKDQIPLIADGGIRFSGDMAKAIGAGASTIMVGSLLAGTEEAPGEVEFFQGRYYKAYRGMGSLGAMAGATGSADRYFQDSKAGAEKLVPEGIEGRVPYKGPMGNIVHQMMGGLRSSMGYTGSAVIEDLRQNAKFVKITSAGMSESHVHDVTITKEAPNYRVG", "notes": "cloned into a modified pET52b vector; Eight copies in the asymmetric unit (octamer of two tetramers); also called A. baumannii GuaBΔCBS; GuaBΔCBS; source: E. coli BL21 (DE3) Gold, purified (HisTrap FF, Superdex200 size-exclusion)"}}, "key": {"[1]": {"target": "the molecule itself", "experiment": "crystal structure; E. coli GuaBΔCBS (28 mg/mL) with 5 mM IMP, vapor diffusion at room temperature, 0.1 M bicine pH 9.0, 20% PEG 6000; crystals soaked with inhibitor; space group I4, one molecule in the asu"}, "[2]": {"target": "the molecule itself", "experiment": "crystal structure; S. aureus GuaBΔCBS (27 mg/mL) with 5 mM IMP, vapor diffusion at room temperature, 0.1 M bicine pH 9.0, 0.1 M NaCl, 30% PEG550 MME; crystals soaked with inhibitor; space group I4, one molecule in the asu"}, "[3]": {"target": "the molecule itself", "experiment": "crystal structure; A. baumannii GuaBΔCBS (21 mg/mL) with 5 mM IMP, vapor diffusion at room temperature, 0.1 M HEPES pH 7.5, 20% isopropanol, 10% PEG4000; crystals soaked with inhibitor; space group P21, eight copies in the asu"}}}
{"protein": "B1", "values": [{"measurement": "stoichiometry N", "setting": "[1]", "result": 4}]}
{"protein": "B2", "values": [{"measurement": "stoichiometry N", "setting": "[2]", "result": 4}]}
{"protein": "B3", "values": [{"measurement": "stoichiometry N", "setting": "[3]", "result": 8}]}
